One assay has as its target T1, HLA-G7 (human, UniProt P17693-7 25-116).
T1 construct: also called HLA-G isoform standard protein HLA-G7; K562-HLA-G7
The experiment in a line: immunoblot of standard proteins, antibody 1.0 µg/ml. (In general: A western blot detects proteins with antibodies after separation by electrophoresis.)

For a further assay, the target named is T2, HLA-G2 (human, UniProt P17693-2 25-246).
T2 construct: also called HLA-G isoform standard protein HLA-G2; K562-HLA-G2
The experiment in a line: intracellular flow cytometry, FITC-labeled antibody on permeabilised K562-HLA-G2 cells. On the technique in general: A flow cytometer gives signals particle by particle.

For a further assay, the target named is T3, HLA-G4 (human, UniProt P17693-4 25-246).
T3 construct: also called HLA-G isoform standard protein HLA-G4; K562-HLA-G4
Briefly: intracellular flow cytometry, FITC-labeled antibody on permeabilised K562-HLA-G4 cells.

Another assay deals with T4, HLA-G3 (human, UniProt P17693-3 25-154).
T4 construct: also called HLA-G isoform standard protein HLA-G3; K562-HLA-G3
The experiment in a line: intracellular flow cytometry, FITC-labeled antibody on permeabilised K562-HLA-G3 cells.

Assay [1] deals with T5, immunogen peptide QTDRMNLQTLRGYYNQSEAS (positions 72-91 in the heavy chain α1 domain of the HLA-G molecule) (human).
T5 construct: Synthetic peptide, coated on the ELISA plate at 2 µg/ml; also called antigen
T5 peptide: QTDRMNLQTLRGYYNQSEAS
Briefly: ELISA on coated peptide, logistic fit, affinity constant = 150000 x dilution factor / antibody concentration. For orientation: An ELISA detects its analyte on a solid surface through an enzyme-linked reagent.
Description: (§1) The antigen (SEQ No.19 [sequence]) was diluted with coating solution to a final concentration of 2 μg/ml, 10 μL/well, overnight at 4° C.; then washed twice with the washing solution; blocked with the blocking solution at 200 μL/well, incubated at 37° C. for 2 hours; then washed once with the washing solution. The purified antibody was diluted gradiently with PBS by 2-fold starting from 200-fold, using PBS as the blank control, both 100 μL/well, incubated at 37° C. for 1 hour; and then washed 3 times with the washing solution. The secondary antibody diluted by 20,000-fold with PBS was added at 100 L/well, and incubated in a 37° C. incubator for 1 hour; taken out and washed 3 times with the washing solution. Then color development was performed with the developing solution at 100 μL/well for 5-15 minutes. Then 50 μL of stop solution was added, and the absorbance was measured at dual wavelengths (450, 630), and a plot was drawn for analysis.

The target of another assay is T6, HLA-G6 (human, UniProt P17693-6 25-227).
T6 construct: also called HLA-G isoform standard protein HLA-G6; K562-HLA-G6
Briefly: intracellular flow cytometry, FITC-labeled antibody on permeabilised K562-HLA-G6 cells.

Another assay has as its target T7, HLA-G5 (human, UniProt P17693-5 25-319).
T7 construct: also called HLA-G isoform standard protein HLA-G5; K562-HLA-G5
The experiment in a line: intracellular flow cytometry, FITC-labeled antibody on permeabilised K562-HLA-G5 cells.

In assay [2] the target is T5, immunogen peptide QTDRMNLQTLRGYYNQSEAS …. The experiment in a line: ELISA on coated peptide, 2-fold dilution series.
Description: as §1

Description for HLA-G2: (§2) The cell cultures expressing the K562 (blank control), K562-HLA-G1, K562-HLA-G2, K562-HLA-G3, K562-HLA-G4, K562-HLA-G5, K562-HLA-G6 and K562-HLA-G7 in the logarithmic growth phase were used. The detection was conducted by intracellular flow cytometry.
(§3) Detection of intracellular molecule expression by flow cytometry: The cell cultures of K562, K562-HLA-G1, K562-HLA-G2, K562-HLA-G3, K562-HLA-G4, K562-HLA-G5, K562-HLA-G6, K562-HLA-G7 were collected in test tubes, centrifuged and washed twice with 2% BSA/PBS (250 g), then 250 μL of cell membrane-breaking agent (BD Cytofix/Cytoperm™) was added, fully mixed, and placed in the refrigerator at 4° C. for 20 minutes. Then 1 ml of BD Perm/Wash™ was added to centrifuge and wash twice (250 g).
Description for HLA-G3: as §2, §3
Description for HLA-G4: as §2, §3
Description for HLA-G5: as §2, §3
Description for HLA-G6: as §2, §3
Description for HLA-G7: After SDS-PAGE electrophoresis and transferred to PVDF membrane, the HLA-G isoform standard proteins HLA-G1, HLA-G2, HLA-G3, HLA-G4, HLA-G5, HLA-G6, HLA-G7 and HLA-G molecular standard proteins lacking al domain were blocked with 5% skimmed milk powder at room temperature for 4 hours, and washed with 0.2% TBS (Tween-20 PBS).

B1: monoclonal antibody YWHG-1 against HLA-G molecule (antibody, V domains shown)
VH: QLQESGTVLVRPGASVKLSCKASGYIFTSYWINWVKQRPGQGLEWIGNIYPSDSYTNFNQKFEDKATLTVDTSSSTAYMQFSSPTSEDSAVYYCTRFGYPFDYWGQGTTLTVSS
VL: DIVITQDELSLTVSLGDQASISCRTSQSFVHSNGNIYLEWFLQKPGQSPKLLIYKVSSRFSGVPDRFSGSGSGTDFTLKISRVEAEDLGIYYCFQGSHVPPTFGGGTKLEIK
notes: FITC-labeled in the flow cytometry assay; also called hybridoma CCTCC NO: 202120
For B1, the binding result with HLA-G7, with HLA-G2, with HLA-G4, with HLA-G3, with HLA-G6 and with HLA-G5 was “binds” throughout. In addition, the Ka in assay [1] amounted to 2.02e+09 M⁻¹. Besides, in assay [2], the “antibody dilution factor corresponding to 1/2 OD value” is 25600 fold dilution (of 1.9 mg/mL antibody).
